{"source": "paper PMC6885686", "about": "“RRM adjacent TARDBP mutations disrupt RNA binding and enhance TDP-43 proteinopathy”", "binders": {"B1": {"name": "AUG-RNA (ssRNA)", "RNA": "GUGUGAAUGAAU"}}, "target": "TDP-43 RRM1-2 WT (UniProt Q13148 102-269)", "sequence (Q13148 102-269)": "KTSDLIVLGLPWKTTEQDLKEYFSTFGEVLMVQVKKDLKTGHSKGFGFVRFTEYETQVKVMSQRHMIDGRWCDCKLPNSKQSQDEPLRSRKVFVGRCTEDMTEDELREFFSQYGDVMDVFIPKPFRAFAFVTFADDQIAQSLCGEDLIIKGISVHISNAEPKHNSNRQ", "experiment": "BLI; EMSA: 5 ug total lysate in RIPA with RNase inhibitor, 2 ug tRNA, 1 uM unlabelled (GU)x6 and 2.5 nM biotin-(GU)x6, 30 min room temperature, 6% native PAGE; BLI buffer not given in the material (protein purified in phosphate buffer pH 7.2)", "details": "protein: recombinant; tags: 6xHis-SUMO removed by TEV", "data": [{"binder": "B1", "values": [{"measurement": "Kd", "result": "3.2 ± 0.9", "unit": "nM"}]}]}
